Source: patent US20030028002A1, “Cyclin D binding factor, and uses thereof” (published 2003)

Legend:
[1] = biological target: T1, Ets1 DNA-binding domain (UniProt P14921 P14921:335-415); experiment: EMSA
T1 sequence: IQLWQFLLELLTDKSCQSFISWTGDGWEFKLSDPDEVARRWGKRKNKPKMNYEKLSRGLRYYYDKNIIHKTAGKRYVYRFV
Experimental: (§1) Electrophoretic mobility shift assay (EMSA). Recombinant DMP1 protein was prepared in Sf9 cells [Hirai and Sherr, Mol. Cell. Biol. 16:6457-6467 (1996)]. Purified bacterial proteins representing the Ets1 DNA binding domain or full-length Ets1 [Inoue, et al., J. Biol. Chem. 273:29188-29194 (1998)] were used. EMSAs were performed [Inoue and Sherr, Mol. Cell. Biol. 18:1590-1600 (1998)] using either a 281-bp genomic fragment (−225 to +56) or double-stranded oligonucleotides containing the DMP1/Ets site obtained by annealing oligonucleotide 5′-[…]-3′ (sense strand SEQ ID NO:41); DMP1/Ets consensus sequence underlined) with a complementary antisense strand. For competition experiments, a 200-fold excess of unlabelled oligonucleotides was added to reaction mixtures before the probe. To verify the identity of the proteins in shifted complexes, reaction mixtures were incubated with control nonimmune rabbit serum (NRS), serum AF [Hirai and Sherr, Mol. Cell. Biol. 16:6457-6467 (1996)] and M-10 (both to DMP1 carboxylterminal epitopes), S-19 (DMP1 N-terminus), or C-20 (Ets1 C-terminus) before electrophoresis. M-10, S-19, and C-20 were from Santa Cruz Biotechnology.

[2] = biological target: T2, Ets1 full length (UniProt P14921 P14921:1-441); experiment: EMSA; supershifted by Ets1 antiserum
T2 sequence: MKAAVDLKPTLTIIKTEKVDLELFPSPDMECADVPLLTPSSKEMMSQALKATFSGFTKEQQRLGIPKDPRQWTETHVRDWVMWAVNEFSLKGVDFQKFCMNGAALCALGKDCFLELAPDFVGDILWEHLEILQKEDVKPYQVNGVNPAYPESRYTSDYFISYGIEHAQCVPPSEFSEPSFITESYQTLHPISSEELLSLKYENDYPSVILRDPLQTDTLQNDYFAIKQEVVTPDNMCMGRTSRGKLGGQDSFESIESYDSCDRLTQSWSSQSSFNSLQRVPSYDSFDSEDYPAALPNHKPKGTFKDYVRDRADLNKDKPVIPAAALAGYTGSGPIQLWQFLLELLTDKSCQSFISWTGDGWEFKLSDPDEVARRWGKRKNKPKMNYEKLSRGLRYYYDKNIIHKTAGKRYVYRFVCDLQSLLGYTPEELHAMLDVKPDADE
Experimental: as §1

B1: ARF DMP1/Ets site oligo 23 bp (dsDNA)
DNA 1: AATTGGGACCCCGGATGCGGCAG
DNA 2: CTGCCGCATCCGGGGTCCCAATT
B1: binds [1]; binds [2].
